# According to patent US20140087995A1 (published 2014):
# Numbered stars: 1 amine (or outer) side, 2 acyl side, 3 side chain; on linkers, the order of the positions; unused ones are H or OH. Bridge positions count the residues as written; N and C are the ends. Side chains are listed from the residue outwards. Ends that are not written are not given here. * marks the point of attachment. C20 diacid = O=C(O)CCCCCCCCCCCCCCCCCCC(=O)*; γGlu = O=C(O)[C@H](CCC(=O)[*:2])N[*:1]
# T1: human amylin receptor (amylin 3(a) receptor: human calcitonin receptor with RAMP-3) (human, UniProt P30988 25-474; O60896 24-148)
# T1 construct: whole, on cells; also called hAmylin-R; hAmylinR
# T1 sequence (looked up) 1: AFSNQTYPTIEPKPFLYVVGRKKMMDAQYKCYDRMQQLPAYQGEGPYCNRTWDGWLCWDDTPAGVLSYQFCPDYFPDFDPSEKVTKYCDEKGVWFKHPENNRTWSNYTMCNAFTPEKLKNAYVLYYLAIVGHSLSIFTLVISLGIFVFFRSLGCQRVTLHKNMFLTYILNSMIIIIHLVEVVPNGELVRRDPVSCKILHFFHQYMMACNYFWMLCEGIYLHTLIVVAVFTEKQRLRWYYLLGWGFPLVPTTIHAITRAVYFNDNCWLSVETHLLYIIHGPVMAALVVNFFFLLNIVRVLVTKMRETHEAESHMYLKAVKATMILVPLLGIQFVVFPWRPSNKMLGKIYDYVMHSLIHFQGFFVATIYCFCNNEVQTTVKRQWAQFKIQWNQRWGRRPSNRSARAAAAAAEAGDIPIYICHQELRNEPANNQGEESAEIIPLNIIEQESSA
# T1 sequence (looked up) 2: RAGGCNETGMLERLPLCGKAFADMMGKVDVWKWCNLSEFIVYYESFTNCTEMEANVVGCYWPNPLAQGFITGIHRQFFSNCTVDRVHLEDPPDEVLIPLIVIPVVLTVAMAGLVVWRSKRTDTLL
# Molecular target: T1, human amylin receptor (amylin 3(a) …)
# Experiment: SPA displacement of 125I-rat amylin, hAmylin 3(a) receptor membranes
# Outline: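 SPA beads with BHK Amylin 3(a)/CRE-luc cell membranes (35 ng/μL final) in 50 mM Hepes pH 7.4, 1 mM CaCl2, 5 mM MgCl₂, 0.1% OA, 0.02% Tween20.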
row,Binder,IC50 [nM]
1,"K([γGlu-C20 diacid])CNTATCATQRLAHFLRHSSPNFGAIPSSTNVGPNTY-NH2 (disulfide 2-7; N-terminus assumed; SMILES CC[C@H](C)[C@H](NC(=O)[C@H](C)NC(=O)CNC(=O)[C@H](Cc1ccccc1)NC(=O)[C@H](CC(N)=O)NC(=O)[C@@H]1CCCN1C(=O)[C@H](CO)NC(=O)[C@H](CO)NC(=O)[C@H](Cc1c[nH]cn1)NC(=O)[C@H](CCCNC(=N)N)NC(=O)[C@H](CC(C)C)NC(=O)[C@H](Cc1ccccc1)NC(=O)[C@H](Cc1c[nH]cn1)NC(=O)[C@H](C)NC(=O)[C@H](CC(C)C)NC(=O)[C@H](CCCNC(=N)N)NC(=O)[C@H](CCC(N)=O)NC(=O)[C@@H](NC(=O)[C@H](C)NC(=O)[C@@H]1CSSC[C@H](NC(=O)[C@@H](N)CCCCNC(=O)CC[C@H](NC(=O)CCCCCCCCCCCCCCCCCCC(=O)O)C(=O)O)C(=O)N[C@@H](CC(N)=O)C(=O)N[C@@H]([C@@H](C)O)C(=O)N[C@@H](C)C(=O)N[C@@H]([C@@H](C)O)C(=O)N1)[C@@H](C)O)C(=O)N1CCC[C@H]1C(=O)N[C@@H](CO)C(=O)N[C@@H](CO)C(=O)N[C@H](C(=O)N[C@@H](CC(N)=O)C(=O)N[C@H](C(=O)NCC(=O)N1CCC[C@H]1C(=O)N[C@@H](CC(N)=O)C(=O)N[C@H](C(=O)N[C@@H](Cc1ccc(O)cc1)C(N)=O)[C@@H](C)O)C(C)C)[C@@H](C)O, also called 67; compound 67)",0.09
2,"{C20 diacid-γGlu}-KCNTATCATQRLAEFLRHSSPNFGAIPSSTNVGKNTY-NH2 (disulfide 2-7; SMILES CC[C@H](C)[C@H](NC(=O)[C@H](C)NC(=O)CNC(=O)[C@H](Cc1ccccc1)NC(=O)[C@H](CC(N)=O)NC(=O)[C@@H]1CCCN1C(=O)[C@H](CO)NC(=O)[C@H](CO)NC(=O)[C@H](Cc1c[nH]cn1)NC(=O)[C@H](CCCNC(=N)N)NC(=O)[C@H](CC(C)C)NC(=O)[C@H](Cc1ccccc1)NC(=O)[C@H](CCC(=O)O)NC(=O)[C@H](C)NC(=O)[C@H](CC(C)C)NC(=O)[C@H](CCCNC(=N)N)NC(=O)[C@H](CCC(N)=O)NC(=O)[C@@H](NC(=O)[C@H](C)NC(=O)[C@@H]1CSSC[C@H](NC(=O)[C@H](CCCCN)NC(=O)CC[C@H](NC(=O)CCCCCCCCCCCCCCCCCCC(=O)O)C(=O)O)C(=O)N[C@@H](CC(N)=O)C(=O)N[C@@H]([C@@H](C)O)C(=O)N[C@@H](C)C(=O)N[C@@H]([C@@H](C)O)C(=O)N1)[C@@H](C)O)C(=O)N1CCC[C@H]1C(=O)N[C@@H](CO)C(=O)N[C@@H](CO)C(=O)N[C@H](C(=O)N[C@@H](CC(N)=O)C(=O)N[C@H](C(=O)NCC(=O)N[C@@H](CCCCN)C(=O)N[C@@H](CC(N)=O)C(=O)N[C@H](C(=O)N[C@@H](Cc1ccc(O)cc1)C(N)=O)[C@@H](C)O)C(C)C)[C@@H](C)O, also called 36; compound 36)",0.403
3,"KCNTATCATQRLADFLRHSSK([γGlu-γGlu-C20 diacid])NFGAIPSSTNVGSDTY-NH2 (disulfide 2-7; N-terminus assumed; SMILES CC[C@H](C)[C@H](NC(=O)[C@H](C)NC(=O)CNC(=O)[C@H](Cc1ccccc1)NC(=O)[C@H](CC(N)=O)NC(=O)[C@H](CCCCNC(=O)CC[C@H](NC(=O)CC[C@H](NC(=O)CCCCCCCCCCCCCCCCCCC(=O)O)C(=O)O)C(=O)O)NC(=O)[C@H](CO)NC(=O)[C@H](CO)NC(=O)[C@H](Cc1c[nH]cn1)NC(=O)[C@H](CCCNC(=N)N)NC(=O)[C@H](CC(C)C)NC(=O)[C@H](Cc1ccccc1)NC(=O)[C@H](CC(=O)O)NC(=O)[C@H](C)NC(=O)[C@H](CC(C)C)NC(=O)[C@H](CCCNC(=N)N)NC(=O)[C@H](CCC(N)=O)NC(=O)[C@@H](NC(=O)[C@H](C)NC(=O)[C@@H]1CSSC[C@H](NC(=O)[C@@H](N)CCCCN)C(=O)N[C@@H](CC(N)=O)C(=O)N[C@@H]([C@@H](C)O)C(=O)N[C@@H](C)C(=O)N[C@@H]([C@@H](C)O)C(=O)N1)[C@@H](C)O)C(=O)N1CCC[C@H]1C(=O)N[C@@H](CO)C(=O)N[C@@H](CO)C(=O)N[C@H](C(=O)N[C@@H](CC(N)=O)C(=O)N[C@H](C(=O)NCC(=O)N[C@@H](CO)C(=O)N[C@@H](CC(=O)O)C(=O)N[C@H](C(=O)N[C@@H](Cc1ccc(O)cc1)C(N)=O)[C@@H](C)O)C(C)C)[C@@H](C)O, also called 59; compound 59)",1.19

# The next lines start with the values.
row,IC50 [nM],Binder
1,0.264,"K([γGlu-γGlu-C20 diacid])CNTATCATQRLAEFLRHSSPNFGAIPSSTNVGSNTP-NH2 (disulfide 2-7; N-terminus assumed; SMILES CC[C@H](C)[C@H](NC(=O)[C@H](C)NC(=O)CNC(=O)[C@H](Cc1ccccc1)NC(=O)[C@H](CC(N)=O)NC(=O)[C@@H]1CCCN1C(=O)[C@H](CO)NC(=O)[C@H](CO)NC(=O)[C@H](Cc1c[nH]cn1)NC(=O)[C@H](CCCNC(=N)N)NC(=O)[C@H](CC(C)C)NC(=O)[C@H](Cc1ccccc1)NC(=O)[C@H](CCC(=O)O)NC(=O)[C@H](C)NC(=O)[C@H](CC(C)C)NC(=O)[C@H](CCCNC(=N)N)NC(=O)[C@H](CCC(N)=O)NC(=O)[C@@H](NC(=O)[C@H](C)NC(=O)[C@@H]1CSSC[C@H](NC(=O)[C@@H](N)CCCCNC(=O)CC[C@H](NC(=O)CC[C@H](NC(=O)CCCCCCCCCCCCCCCCCCC(=O)O)C(=O)O)C(=O)O)C(=O)N[C@@H](CC(N)=O)C(=O)N[C@@H]([C@@H](C)O)C(=O)N[C@@H](C)C(=O)N[C@@H]([C@@H](C)O)C(=O)N1)[C@@H](C)O)C(=O)N1CCC[C@H]1C(=O)N[C@@H](CO)C(=O)N[C@@H](CO)C(=O)N[C@H](C(=O)N[C@@H](CC(N)=O)C(=O)N[C@H](C(=O)NCC(=O)N[C@@H](CO)C(=O)N[C@@H](CC(N)=O)C(=O)N[C@H](C(=O)N1CCC[C@H]1C(N)=O)[C@@H](C)O)C(C)C)[C@@H](C)O, also called 13; compound 13)"
2,0.179,"K([γGlu-γGlu-C20 diacid])CNTATCATQRLAHFLRHSSPNFGAIPSSTNVGSNTY-NH2 (disulfide 2-7; N-terminus assumed; SMILES CC[C@H](C)[C@H](NC(=O)[C@H](C)NC(=O)CNC(=O)[C@H](Cc1ccccc1)NC(=O)[C@H](CC(N)=O)NC(=O)[C@@H]1CCCN1C(=O)[C@H](CO)NC(=O)[C@H](CO)NC(=O)[C@H](Cc1c[nH]cn1)NC(=O)[C@H](CCCNC(=N)N)NC(=O)[C@H](CC(C)C)NC(=O)[C@H](Cc1ccccc1)NC(=O)[C@H](Cc1c[nH]cn1)NC(=O)[C@H](C)NC(=O)[C@H](CC(C)C)NC(=O)[C@H](CCCNC(=N)N)NC(=O)[C@H](CCC(N)=O)NC(=O)[C@@H](NC(=O)[C@H](C)NC(=O)[C@@H]1CSSC[C@H](NC(=O)[C@@H](N)CCCCNC(=O)CC[C@H](NC(=O)CC[C@H](NC(=O)CCCCCCCCCCCCCCCCCCC(=O)O)C(=O)O)C(=O)O)C(=O)N[C@@H](CC(N)=O)C(=O)N[C@@H]([C@@H](C)O)C(=O)N[C@@H](C)C(=O)N[C@@H]([C@@H](C)O)C(=O)N1)[C@@H](C)O)C(=O)N1CCC[C@H]1C(=O)N[C@@H](CO)C(=O)N[C@@H](CO)C(=O)N[C@H](C(=O)N[C@@H](CC(N)=O)C(=O)N[C@H](C(=O)NCC(=O)N[C@@H](CO)C(=O)N[C@@H](CC(N)=O)C(=O)N[C@H](C(=O)N[C@@H](Cc1ccc(O)cc1)C(N)=O)[C@@H](C)O)C(C)C)[C@@H](C)O, also called 92; compound 92)"
3,0.142,"K([γGlu-C20 diacid])CNTATCATQRLAEFLRHSSPNFGAIPSSTNVGSNTP-NH2 (disulfide 2-7; N-terminus assumed; SMILES CC[C@H](C)[C@H](NC(=O)[C@H](C)NC(=O)CNC(=O)[C@H](Cc1ccccc1)NC(=O)[C@H](CC(N)=O)NC(=O)[C@@H]1CCCN1C(=O)[C@H](CO)NC(=O)[C@H](CO)NC(=O)[C@H](Cc1c[nH]cn1)NC(=O)[C@H](CCCNC(=N)N)NC(=O)[C@H](CC(C)C)NC(=O)[C@H](Cc1ccccc1)NC(=O)[C@H](CCC(=O)O)NC(=O)[C@H](C)NC(=O)[C@H](CC(C)C)NC(=O)[C@H](CCCNC(=N)N)NC(=O)[C@H](CCC(N)=O)NC(=O)[C@@H](NC(=O)[C@H](C)NC(=O)[C@@H]1CSSC[C@H](NC(=O)[C@@H](N)CCCCNC(=O)CC[C@H](NC(=O)CCCCCCCCCCCCCCCCCCC(=O)O)C(=O)O)C(=O)N[C@@H](CC(N)=O)C(=O)N[C@@H]([C@@H](C)O)C(=O)N[C@@H](C)C(=O)N[C@@H]([C@@H](C)O)C(=O)N1)[C@@H](C)O)C(=O)N1CCC[C@H]1C(=O)N[C@@H](CO)C(=O)N[C@@H](CO)C(=O)N[C@H](C(=O)N[C@@H](CC(N)=O)C(=O)N[C@H](C(=O)NCC(=O)N[C@@H](CO)C(=O)N[C@@H](CC(N)=O)C(=O)N[C@H](C(=O)N1CCC[C@H]1C(N)=O)[C@@H](C)O)C(C)C)[C@@H](C)O, also called 12; compound 12)"
